Patent US20090117169A1

Key:
Assay in all cases: cell-based or functional assay
[1] = biological target: Myc-tagged β-catenin
[2] = biological target: endogenous β-catenin in rat vascular smooth muscle cells (RASMCs, A7r5) (rat) (UniProt Q9WU82)
[3] = biological target: endogenous β-catenin in mouse aortic smooth muscle cells (MASMCs) (mouse) (UniProt Q02248)

UniProt Q9WU82, sequence (Q9WU82 2-781): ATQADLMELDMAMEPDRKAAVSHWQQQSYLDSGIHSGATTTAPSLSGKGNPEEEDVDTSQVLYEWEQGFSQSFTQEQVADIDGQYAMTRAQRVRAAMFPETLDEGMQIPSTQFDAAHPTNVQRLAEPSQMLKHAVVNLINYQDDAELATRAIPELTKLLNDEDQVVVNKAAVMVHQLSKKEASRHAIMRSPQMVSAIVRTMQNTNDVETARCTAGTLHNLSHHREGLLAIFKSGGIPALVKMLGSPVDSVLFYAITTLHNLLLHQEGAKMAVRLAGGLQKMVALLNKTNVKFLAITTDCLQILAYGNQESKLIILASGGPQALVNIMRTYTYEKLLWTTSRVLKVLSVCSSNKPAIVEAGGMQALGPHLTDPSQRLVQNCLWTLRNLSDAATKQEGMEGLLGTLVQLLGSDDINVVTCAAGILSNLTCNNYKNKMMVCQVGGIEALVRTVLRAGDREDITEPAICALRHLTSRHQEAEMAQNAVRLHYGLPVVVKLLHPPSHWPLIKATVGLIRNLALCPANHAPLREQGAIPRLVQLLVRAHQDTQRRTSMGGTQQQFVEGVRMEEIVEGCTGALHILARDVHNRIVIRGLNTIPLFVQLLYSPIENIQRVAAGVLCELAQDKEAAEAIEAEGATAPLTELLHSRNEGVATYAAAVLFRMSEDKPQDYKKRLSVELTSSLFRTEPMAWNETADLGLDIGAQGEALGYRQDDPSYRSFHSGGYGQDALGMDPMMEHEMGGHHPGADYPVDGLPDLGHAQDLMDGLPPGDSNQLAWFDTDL

| Substance | inhibition of β-catenin activation of Topflash (TCF-luciferase reporter) in A7r5 cells [1] [%] | nuclear β-catenin/lamin A/C ratio in fractionated, LiCl-treated A7r5 cells [2] | LiCl-stimulated TCF/β-catenin transcriptional activation (Topflash) in MASMCs after Fat1 knockdown (% higher than control siRNA) [3] |
| --- | --- | --- | --- |
| FLAG-tagged N-cadherin (receptor) | 55 | – | – |
| IL2R-Fat1IC (from UniProt P01589 22-259) | 40 | 0.8 | – |
| endogenous Fat1 in mouse aortic smooth muscle cells (MASMCs) | – | – | 30 |
